From patent US8598081B2, “Specific delivery of agrochemicals” (priority 2010, dated 2013)

T1: potato lectin (Solanum tuberosum, UniProt Q9S8M0)
T1 construct: purchased Sigma
T1 sequence (Q9S8M0 whole entry, looked up): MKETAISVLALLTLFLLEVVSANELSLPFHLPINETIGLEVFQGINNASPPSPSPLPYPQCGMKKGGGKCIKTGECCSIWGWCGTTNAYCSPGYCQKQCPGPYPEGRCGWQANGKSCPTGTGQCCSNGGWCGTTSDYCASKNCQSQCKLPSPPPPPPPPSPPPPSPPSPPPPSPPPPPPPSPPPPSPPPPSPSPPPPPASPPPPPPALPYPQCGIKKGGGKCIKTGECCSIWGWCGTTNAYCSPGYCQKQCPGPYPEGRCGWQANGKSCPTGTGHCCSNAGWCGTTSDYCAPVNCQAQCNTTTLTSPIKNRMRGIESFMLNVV

B1: VHH 3E6: VHH binding gum arabic, potato lectin and leaf surface; SEQ ID NO:7 by order of the list (protein, listed as Lama glama)
VHH: QVQLQESGGGLVQPGGTLSLSCAASGFNVRWYGMGWFRQAPGKEREGVACISALQETTAYADSVKGRFTLSRDNPKNTLSLQMNNLQPEDTGVYYCATTDCDDSSRMTYTSYLGQGTQVTVSS
modifications: 3E6
B2: Microcapsules containing uvitex OB VHH 3E6: polyurea microcapsules containing the fluorescent tracer Uvitex OB, coupled with (monovalent) VHH 3E6 (conjugate)
VHH: B1 VHH
modifications: left off: small tags and cut ends
notes: polyurea microcapsules containing the fluorescent tracer Uvitex OB, coupled with (monovalent) VHH 3E6

Key:
potato leaf discs = test: Leaf disc binding assay with VHH-coupled microcapsules, potato; parameters: species or system potato (variety Desiree)
Method: A leaf disc binding assay was used to evaluate the interaction of VHH-coupled microcapsules with potato, grass and azalea leaves. ø 8 mm leaf discs were sampled from the leaves of potato pot plants (variety Desiree), from the leaves of greenhouse-grown Lollium perenne and from the leaves of azalea pot plants. Leaf discs were washed three times with PBS. Microcapsules containing lambda cyhalothrin or Uvitex were diluted to appropriate densities in 1% skimmed milk in PBS with 0.05%-TWEEN®-20. Microcapsules were added to the leaf discs and settling of microcapsules and binding of targeting agents allowed for 1 hour. Unbound microcapsules were removed by washing three to five times with PBS with 0.05%-TWEEN®-20.
For lambda cyhalothrin microcapsules, a residue analysis was performed to measure lambda cyhalothrin amounts on potato leaf discs. Washed leaf discs with bound microcapsules were transferred to glass vials and microcapsules were dissolved in acetone. Samples were diluted by addition of hexane containing 0.05% triphenylphosphate as internal standard. The amount of lambda cyhalothrin was determined by GC/MS-MS analysis in comparison with calibration solutions. Controls for lambda cyhalothrin microcapsules included blank microcapsules to which no VHH were coupled and microcapsules to which unrelated VHH were coupled.
Leaf discs with Uvitex microcapsules were analyzed for bound microcapsules on a macrozoom microscope system (Nikon). Microcapsules were counted using Volocity image analysis software (Perkin Elmer). A DAPI filter was used to visualize Uvitex microcapsules. Controls for Uvitex microcapsules included blank microcapsules to which no VHH were coupled and microcapsules to which unrelated VHH were coupled.

[1] = test system: leaf surface of potato leaves; test: VHH binding to non-fixed leaf discs, potato; parameters: species or system potato (variety Desiree); settings: 5 μg/ml, detection with anti-histidine Alexa-488
Method: VHH binding to non-fixed leaf discs of potato (variety Desiree), black nightshade, grass, wheat or azalea was investigated. For comparison, binding of CBM3a to non-fixed leaf discs of potato (variety Desiree) was analyzed in parallel. Leaf discs were prepared by punching a fresh potato leaf with a 5 mm belt hole puncher tool. Leaf discs were put immediately in wells of a 96-well plate containing 200 μl per well 5% MPBS or PBS, and incubated for 30 minutes. Leaf discs were transferred to solutions containing 5 μg/ml VHH antibody fragment, respectively, 5 μg/ml CBM3a in 2% MPBS or PBS and incubated for 60-90 minutes. Unbound VHH or CBM3a proteins were removed by washing three times with 2% MPBS or PBS. Bound VHH or CBM3a proteins were detected with incubation with monoclonal mouse anti-histidine antibodies directly conjugated with Alexa-488 fluorescent dye (Abd Serotec) in 1% MPBS for 1 hour. Unbound antibodies were removed by washing three times with PBS. Leaf discs were put on glass slides, covered with cover slips, and analyzed by microscopy or on a macrozoom microscope system (Nikon) or a SP5 confocal microscope system (Leica).

potato lectin = target: T1, potato lectin; test: ELISA-like assay of VHH-coupled microcapsules, potato lectin-coated wells; type: binding; parameters: Area of bound microcapsules: unit not given beside the values; settings: for Area of bound microcapsules: uvitex OB microcapsules
Method: Polyurea microcapsules were produced by interfacial polymerization. With the objective to generate functionalized polyurea microcapsules, VHH were coupled to microcapsules containing either the insecticide lambda cyhalothrin or the fluorescent tracer molecule Uvitex OB and a shell with incorporated lysine to surface-expose carboxylic acid residues. Lambda cyhalothrin was dissolved in benzyl benzoate in concentrations between 30% and 66% before encapsulation. Alternatively, a core of 1.5% Uvitex in benzyl benzoate was used for easy fluorescent visualization of microcapsules. Toluene diisocyanate (TDI) and polymethylenepolyphenylene isocyanate (PMPPI) were dissolved in the oil phase in different ratios and concentrations in the oil phase to produce desired shell characteristics. Stirring speed for the emulsion was varied to control droplet size and consequently microcapsule diameter. Microcapsules with approximate diameters of 5 μm, 10 μm, or 50 μm were successfully produced. Bifunctional lysine and trifunctional diethylene triamine (DETA) were used in different ratios and/or added sequentially during encapsulation to on the one hand maximize amounts of carboxylic acids on the microcapsules' surface and on the other hand obtain sufficient strength of capsule shells. Microcapsules were washed with water after production and stored as microcapsule suspensions in water. The microcapsules were washed with 100 mM MES, 500 mM NaCl, pH 6.0 immediately before coupling of VHH using a vacuum-tight filter flask and P 1.6 filter funnel (Duran). Alternatively, glass filter holders with 0.45 μm disposable membrane filters (Millipore) or 0.45 μm 96-well deep-well filtration plates (Millipore) were used. Couplings of VHH to microcapsules were performed using carbodiimide-mediated couplings using a one-step procedure, a two-step procedure without N-hydroxysuccinimide (NHS), or a two-step procedure with NHS. The major difference between one-step coupling and two-step coupling procedures is the occurrence of cross-linking of VHH in one-step coupling procedures. The protocols for the three procedures are largely similar and differ as follows. For one-step couplings VHH were added to washed microcapsules and 1-Ethyl-3-[3-dimethylaminopropyl]carbodiimide Hydrochloride (EDC) (Pierce) was added and coupling reaction was allowed for 2 hours at room temperature. For two-step couplings washed microcapsules were first activated with EDC in the presence or absence of NHS. Excess unreacted EDC (and NHS) were removed by quick sequential washes with ice-cold buffers and VHH were added and allowed to react with activated carboxylic acids on microcapsule shells. For ø 10 μm microcapsules 2-20 μg VHH were coupled per mg microcapsules. For microcapsules with other diameters amounts were scaled accordingly. After coupling of VHH the microcapsules were washed with PBS and stored in PBS. Success of coupling of VHH was investigated using a combination of analyzing coupling efficiency by SDS-PAGE and analyzing bound hexahistidine-tagged VHH by microscopy or a SP5 confocal microscope system (Leica) using anti-histidine antibodies directly conjugated with Alexa-488 fluorescent dye. […] VHH-coupled microcapsules were labeled with anti-histidine antibodies for 1 hour at room temperature. Unbound anti-histidine antibodies were removed by washing five times with PBS using 0.45 μm 96-well deep-well filtration plates (Millipore). […]

[2] = potato leaf discs, Uvitex microcapsules, FIG. 4

Row | Molecule | binding and retaining microcapsules to leaf surfaces (potato leaf discs; VHH coupled to Uvitex microcapsules, leaf disc binding assay) | binding to native potato leaf surface (fluorescence microscopy) [1] | binding to native potato leaf surface (fluorescence microscopy) ([1]; listed as 3E6) | binding and retaining microcapsules to antigen-coated surface when VHH is coupled to a microcapsule (potato lectin; microcapsule binding assays, resists washing shear forces) | more microcapsules bound to leaf surfaces compared to blank microcapsules (potato leaf discs; [2]) | more microcapsules bound to leaf surfaces compared to microcapsules coupled with unrelated VHH (potato leaf discs; [2]) | Area of bound microcapsules (potato lectin; no coating (first series, with potato lectin rows), surface coverage 100%) | Area of bound microcapsules (potato lectin; potato lectin, surface coverage 4%) | Area of bound microcapsules (potato lectin; potato lectin, surface coverage 20%) | Area of bound microcapsules (potato lectin; potato lectin, surface coverage 100%)
1 | B1 | capable of binding and retaining microcapsules specifically to leaf surfaces | binding leaf surface, stomata, glandular trichomes, and leaf hairs | clearly binding to trichomes, stomata and cuticle | capable of binding specifically to antigen-coated surfaces |  |  |  |  |  | 
2 | B2 |  |  |  |  | nine-fold | six-fold | 86.574 | 144.955 | 510.242 | 504.839
